Among the data in PMC9882641, “Utilizing genetic code expansion to modify N-TIMP2 specificity towards MMP-2, MMP-9, and MMP-14” (Research Square, 2023) are Ki values, retold here.

Experiment in all cases: enzyme inhibition assay (chromogenic substrate, fit to Morrison's tight binding equation); MMP-2ACT (0.6 nM), MMP-9CAT (3 nM) or MMP-14CAT (1 nM) incubated with 0-25 nM N-TIMP2 variant for 1 h at 37 C in 50 mM HEPES, 10 mM CaCl2, 0.05% Brij-35, 1 mM DTNB, pH 7.5; then 100 uM chromogenic substrate, absorbance at 412 nm; three independent experiments
Holding throughout (details): both partners purified

Test [1] has as its target T1, activated MMP-2 (MMP-2ACT) (human, UniProt P08253 110-660).
T1 sequence (looked up): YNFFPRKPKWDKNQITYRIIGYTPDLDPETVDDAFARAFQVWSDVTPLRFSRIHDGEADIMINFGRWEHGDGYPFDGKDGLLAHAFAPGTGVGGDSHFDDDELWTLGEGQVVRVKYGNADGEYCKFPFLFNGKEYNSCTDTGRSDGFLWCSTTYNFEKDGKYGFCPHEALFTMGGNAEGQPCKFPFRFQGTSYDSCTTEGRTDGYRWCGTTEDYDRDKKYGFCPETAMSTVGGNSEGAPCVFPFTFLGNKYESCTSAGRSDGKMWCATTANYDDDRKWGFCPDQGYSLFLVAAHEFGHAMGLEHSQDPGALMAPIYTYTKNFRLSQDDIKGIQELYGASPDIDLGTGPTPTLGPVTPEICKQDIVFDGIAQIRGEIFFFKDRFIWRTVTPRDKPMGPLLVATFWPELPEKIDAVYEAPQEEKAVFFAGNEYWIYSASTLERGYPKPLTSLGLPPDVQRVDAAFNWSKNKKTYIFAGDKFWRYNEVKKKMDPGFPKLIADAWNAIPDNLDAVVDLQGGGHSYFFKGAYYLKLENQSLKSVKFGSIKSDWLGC

The target in test [2] is T2, human MMP-9 catalytic domain (MMP-9CAT) (human, UniProt P14780 107-215; P14780 391-443).
T2 construct: Matrix metalloproteinase 9 (MMP-9), human, catalytic domain, residues 107-215 (first stretch; residues 216-390 left out); Matrix metalloproteinase 9 (MMP-9), human, catalytic domain, residues 391-443 (second stretch)
T2 chain (looked up): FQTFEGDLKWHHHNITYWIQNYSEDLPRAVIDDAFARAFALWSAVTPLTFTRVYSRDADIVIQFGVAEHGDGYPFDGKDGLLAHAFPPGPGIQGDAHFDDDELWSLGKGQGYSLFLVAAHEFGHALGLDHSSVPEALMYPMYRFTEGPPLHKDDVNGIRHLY

The target in test [3] is T3, human MMP-14 catalytic domain (MMP-14CAT) (human, UniProt P50281 112-292).
T3 construct: Matrix metalloproteinase 14 (MMP-14), human, catalytic domain, residues 112-292

B1: N-TIMP2 (N-terminal domain of TIMP2) (domain or fragment, human, UniProt P16035 27-153, looked up)
chain: CSCSPVHPQQAFCNADVVIRAKAVSEKEVDSGNDIYGNPIKRIQYEIKQIKMFKGPEKDIEFIYTAPSSAVCGVSLDVGGKKEYLIAGKAEGDGKMHITLCDFIVPWDTLSTTQKKSLNHRYQMGCE
notes: numbers count on: the mature protein (Cys1 is the N-terminus); Cloned in the vector pMECS; also called wild-type N-TIMP2; parental N-TIMP2; source: E. coli WK6, periplasmic extract, purified (Ni-NTA)
The term Ki denotes a measure of affinity in units of concentration, obtained from inhibition or displacement. As to B1, the Ki in test [1] is 0.233 nM; in test [2], 0.322 nM; in test [3], 0.711 nM.
